Experimental data: patent US20080300188A1 (GENEXINE, published 2008)

Tests used:
[1] = biological target: T1, C1q (AbD serotech, Cat#. 2221-5504) (UniProt P02745 23-245; P02746 28-253; P02747 29-245); assay: ELISA, sample coated on strip, C1q added, detected with HRP conjugated anti-C1q
T1 construct: Bought C1q, added at 2 ug/ml
Method: (§1) To investigate whether hFc-5-fused proteins bind to FcγRI and C1q, MabThera® (Rituximab, Roche), hIgG1 (Calbiochem, Cat#, 400120), Enbrel® (etanercept, Amgen), EPO-hFc-5, G-CSF-hFc-5 and p40N303Q-hFc-5 were serially diluted (from 2 ug/ml to 16 ng/ml with 2-fold) and coated on the 8 well strip (COSTAR, New York) overnight at 4° C. To make a standard curve, FcγRI (R&D, cat# BAF1257) or C1q (AbD serotech, Cat#. 2221-5504) were also serially diluted (from 2 ug/ml to 32 ng/ml with 2-fold) and coated on the 8 well strip (COSTAR, New York) overnight at 4° C. After washing each strip of samples with washing buffer (PBS containing 0.05% tween) and blocking with 10% FBS in PBS for 1 hour at RT, FcγRI or C1q were added into each well at 2 ug/ml following incubation for 2 hours at room temperature (RT). All strips were washed with washing buffer. For C1q binding test, HRP conjugated anti-C1q (AbD serotech, cat#. 2221-5004P) was added into each well at 2.5 ug/ml following 30 min incubation at RT under dark condition. For FcγRI binding test, biotinylated anti-FcγRI (R&D, cat#. 1257-FC) was added into each well at 2 ug/ml following 1 hour incubation at RT. After washing them with washing buffer, Streptavidine-HRP (BD, cat#. 554066) diluted with 3,000 fold was added into each strip following 30 minute incubation at RT under dark condition. […]

[2] = biological target: T2, FcγRI (R&D, cat# BAF1257) (UniProt P12314 16-288, limits assumed); assay: ELISA, sample coated on strip, FcγRI added, detected with biotinylated anti-FcγRI and streptavidin-HRP
T2 construct: Bought soluble reagent, added at 2 ug/ml; also called FcγR1
T2 sequence (P12314 16-288 limits assumed): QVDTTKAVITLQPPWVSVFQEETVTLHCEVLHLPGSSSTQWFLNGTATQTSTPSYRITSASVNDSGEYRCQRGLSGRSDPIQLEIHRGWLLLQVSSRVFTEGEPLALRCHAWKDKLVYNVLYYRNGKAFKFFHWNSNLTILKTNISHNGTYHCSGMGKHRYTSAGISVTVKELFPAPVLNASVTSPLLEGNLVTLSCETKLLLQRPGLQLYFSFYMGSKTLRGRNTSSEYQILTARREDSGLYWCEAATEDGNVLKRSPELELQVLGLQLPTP
Method: as §1

T1 sequence (P02745 23-245 limits assumed, chain 1 of 3): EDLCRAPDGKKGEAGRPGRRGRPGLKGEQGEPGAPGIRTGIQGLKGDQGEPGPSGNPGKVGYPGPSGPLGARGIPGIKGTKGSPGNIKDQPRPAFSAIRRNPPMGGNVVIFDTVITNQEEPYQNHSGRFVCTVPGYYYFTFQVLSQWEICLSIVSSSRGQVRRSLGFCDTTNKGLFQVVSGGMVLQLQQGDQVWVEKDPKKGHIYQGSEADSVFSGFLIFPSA
T1 sequence (P02746 28-253 limits assumed, chain 2 of 3): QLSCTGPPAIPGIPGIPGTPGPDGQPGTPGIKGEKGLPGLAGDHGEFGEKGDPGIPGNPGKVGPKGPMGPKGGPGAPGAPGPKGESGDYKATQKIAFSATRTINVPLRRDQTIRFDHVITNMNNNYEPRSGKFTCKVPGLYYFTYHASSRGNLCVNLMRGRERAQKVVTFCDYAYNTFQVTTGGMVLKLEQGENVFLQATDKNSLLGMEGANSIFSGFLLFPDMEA
T1 sequence (P02747 29-245 limits assumed, chain 3 of 3): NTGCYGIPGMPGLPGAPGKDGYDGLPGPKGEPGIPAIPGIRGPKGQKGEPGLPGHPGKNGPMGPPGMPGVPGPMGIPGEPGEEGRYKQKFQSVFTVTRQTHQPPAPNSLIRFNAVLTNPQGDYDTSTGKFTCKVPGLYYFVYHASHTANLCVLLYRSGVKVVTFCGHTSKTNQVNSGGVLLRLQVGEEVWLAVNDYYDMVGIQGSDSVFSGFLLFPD

B1: p40N303Q-hFc-5 (Fc fusion)
chain: IWELKKDVYVVELDWYPDAPGEMVVLTCDTPEEDGITWTLDQSSEVLGSGKTLTIQVKEFGDAGQYTCHKGGEVLSHSLLLLHKKEDGIWSTDILKDQKEPKNKTFLRCEAKNYSGRFTCWWLTTISTDLTFSVKSSRGSSDPQGVTCGAATLSAERVRGDNKEYEYSVECQEDSACPAAEESLPIEVMVDAVHKLKYENYTSSFFIRDIIKPDPPKNLQLKPLKNSRQVEVSWEYPDTWSTPHSYFSLTFCVQVQGKSKREKKDRVFTDKTSATVICRKQASISVRAQDRYYSSSWSEWASVPCSRNTGRGGEEKKKEKEKEEQEERETKTPECPSHTQPLGVFLFPPKPKDTLMISRTPEVTCVVVDVSQEDPEVQFNWYVDGVEVHNAKTKPREEQFNSTYRVVSVLTVLHQDWLNGKEYKCKVSNKGLPSSIEKTISKAKGQPREPQVYTLPPSQEEMTKNQVSLTCLVKGFYPSDIAVEWESNGQPENNYKTTPPVLDSDGSFFLYSRLTVDKSRWQEGNVFSCSVMHEALHNHYTQKSLSLSLGK
notes: also called human p40N303Q-hFc-5
B1: no binding [1]; no binding [2].
